# Measured values published in paper PMC9060507 (Proceedings of the National Academy of Sciences of the …, 2022).
# T1: Methylosinus trichosporium OB3b MbnBC enzyme complex (wild type) (Methylosinus trichosporium OB3b, UniProt A0A2D2D5M1;A0A2D2CY73)
# T1 sequence 1: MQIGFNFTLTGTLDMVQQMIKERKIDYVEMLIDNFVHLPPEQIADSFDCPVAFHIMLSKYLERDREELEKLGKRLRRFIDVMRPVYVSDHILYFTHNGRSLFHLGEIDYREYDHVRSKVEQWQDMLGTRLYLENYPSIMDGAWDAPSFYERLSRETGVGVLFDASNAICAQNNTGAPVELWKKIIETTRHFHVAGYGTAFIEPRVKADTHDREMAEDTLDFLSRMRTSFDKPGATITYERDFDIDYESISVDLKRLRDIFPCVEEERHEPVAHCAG
# T1 sequence 2: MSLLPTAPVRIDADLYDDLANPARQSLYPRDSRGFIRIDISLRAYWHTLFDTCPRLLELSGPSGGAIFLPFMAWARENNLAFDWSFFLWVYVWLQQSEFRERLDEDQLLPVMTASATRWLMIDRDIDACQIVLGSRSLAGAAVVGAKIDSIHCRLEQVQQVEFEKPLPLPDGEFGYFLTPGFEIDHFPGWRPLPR
# Molecular target: T1, Methylosinus trichosporium OB3b MbnBC …
# Test: EPR spectroscopy
binder,measurement,value
MTVKIAQKKVLPVIGRAAALCGSCYPCSCM [MbnA precursor peptide from Ms. trichosporium OB3b],binding result,binds
